Results: patent US10071358B2, “Antibiotic preparation method and platform system based on same” (priority 2011, dated 2018)

Legend:
Type in all cases: cell-based
[1] = tested on: multi-drug resistant Pseudomonas aeruginosa (clinical isolated strain 13578 in West China Hospital); experiment: inhibition / killing of multi-drug resistant Pseudomonas aeruginosa; conditions: FIG. 7 C
[2] = tested on: methicillin-resistant Staphylococcus aureus (ATCC BAA-42)
[3] = tested on: vancomycin-resistant enterococci (ATCC 700802); experiment: inhibition / killing of vancomycin-resistant enterococci; conditions: FIG. 7 A

B1: wild-type colicin Ia: wild-type colicin Ia, bacteriocin secreted by Escherichia coli that forms ion channels (protein, UniProt P06716 1-626, looked up)
Colicin-Ia: MSDPVRITNPGAESLGYDSDGHEIMAVDIYVNPPRVDVFHGTPPAWSSFGNKTIWGGNEWVDDSPTRSDIEKRDKEITAYKNTLSAQQKENENKRTEAGKRLSAAIAAREKDENTLKTLRAGNADAADITRQEFRLLQAELREYGFRTEIAGYDALRLHTESRMLFADADSLRISPREARSLIEQAEKRQKDAQNADKKAADMLAEYERRKGILDTRLSELEKNGGAALAVLDAQQARLLGQQTRNDRAISEARNKLSSVTESLNTARNALTRAEQQLTQQKNTPDGKTIVSPEKFPGRSSTNHSIVVSGDPRFAGTIKITTSAVIDNRANLNYLLSHSGLDYKRNILNDRNPVVTEDVEGDKKIYNAEVAEWDKLRQRLLDARNKITSAESAVNSARNNLSARTNEQKHANDALNALLKEKENIRNQLSGINQKIAEEKRKQDELKATKDAINFTTEFLKSVSEKYGAKAEQLAREMAGQAKGKKIRNVEEALKTYEKYRADINKKINAKDRAAIAAALESVKLSDISSNLNRFSRGLGYAGKFTSLADWITEFGKAVRTENWRPLFVKTETIIAGNAATALVALVFSILTGSALGIIGYGLLMAVTGALIDESLVEKANKFWGI
- minimum inhibitory concentration (MIC) [1]: 0.91 nmol
- minimum inhibitory concentration (MIC) [2]: 0.23 nmol
- minimum inhibitory concentration (MIC) [3]: 0.91 nmol
